Data: paper PMC8310559

target: ectodomain of SARS-CoV-2 S protein (a.a. 1-1208 (SARS-CoV-2) (UniProt P0DTC2)); assay: SPR

Row | Substance | Kd [µM]
1 | CR3022 Fab | 0.0454
2 | CR3022 IgG (antibody) | 0.00021
3 | CR3022 scFv VHVL | 0.0201
4 | CR3022 scFv VLVH | 0.0278
